Reference: patent US10253078 (ZEALAND PHARMA A S, dated 2019)
Where two headings read alike, the source gives them in different places. Starred links: 1 amine or outer side, 2 acyl side, 3 side chain; linkers in the order of their positions; H or OH if unused. Non-standard residues stand in square brackets, D forms with d. Groups on a side chain read outwards from the residue. *: point of attachment. C20 diacid = O=C(O)CCCCCCCCCCCCCCCCCCC(=O)*; γGlu = O=C(O)[C@H](CCC(=O)[*:2])N[*:1]; Aib = CC(C)(N)C(=O)O

T1: human GIP receptor (human, UniProt P48546 22-466)
T1 sequence (looked up): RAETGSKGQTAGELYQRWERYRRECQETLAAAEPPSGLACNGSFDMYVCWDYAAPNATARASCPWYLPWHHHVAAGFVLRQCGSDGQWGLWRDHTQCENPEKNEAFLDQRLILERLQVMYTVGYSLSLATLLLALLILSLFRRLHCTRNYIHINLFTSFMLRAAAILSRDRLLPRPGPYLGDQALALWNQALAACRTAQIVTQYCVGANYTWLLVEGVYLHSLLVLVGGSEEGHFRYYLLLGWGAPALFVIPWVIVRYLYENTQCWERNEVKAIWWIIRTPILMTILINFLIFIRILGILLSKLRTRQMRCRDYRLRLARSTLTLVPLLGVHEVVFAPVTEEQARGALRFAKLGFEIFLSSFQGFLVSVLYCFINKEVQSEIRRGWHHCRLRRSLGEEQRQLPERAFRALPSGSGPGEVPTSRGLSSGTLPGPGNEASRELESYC


Tests used:
Experiment in all cases: cell-based or functional assay
human GLP-1 receptor = human GLP-1 receptor (human, UniProt P43220 24-463)
human GIP receptor [1] = target: T1, human GIP receptor
[2] = target: human GLP-1 receptor (human) (UniProt P43220)
Chain of human GLP-1 receptor (human) (P43220 24-463): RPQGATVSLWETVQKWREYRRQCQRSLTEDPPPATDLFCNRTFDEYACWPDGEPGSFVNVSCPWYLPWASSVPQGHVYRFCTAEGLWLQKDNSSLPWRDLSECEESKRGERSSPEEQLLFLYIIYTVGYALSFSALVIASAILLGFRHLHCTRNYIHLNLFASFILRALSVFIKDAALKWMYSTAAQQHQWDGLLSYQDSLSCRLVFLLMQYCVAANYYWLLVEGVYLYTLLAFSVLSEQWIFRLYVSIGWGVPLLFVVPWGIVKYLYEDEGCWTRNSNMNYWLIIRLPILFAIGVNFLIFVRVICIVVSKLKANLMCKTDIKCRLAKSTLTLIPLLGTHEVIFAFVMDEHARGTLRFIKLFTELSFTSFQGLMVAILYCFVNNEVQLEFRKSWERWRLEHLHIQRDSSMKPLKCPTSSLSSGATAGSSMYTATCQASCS

human GIP receptor [3] = target: T1, human GIP receptor; remark: listed apart in the source
human GIP receptor [4] = target: T1, human GIP receptor; remark: listed apart in the source

Chain of Exendin-4 (P26349 48-86 limits assumed): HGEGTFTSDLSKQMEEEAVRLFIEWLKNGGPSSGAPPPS

Row | Molecule | EC50 hGLP1 R (cAMP, HEK293 cells expressing the GLP-1R) (human GLP-1 receptor) [nM] | EC50, hGIP-R level of cAMP (HEK293 cells expressing human GIP R) (human GIP receptor [1]) [nM] | EC50 hGLP1 R (cAMP, HEK293 cells expressing the GLP-1R) [2] [nM] | EC50 hGIP R (cAMP, HEK293 cells expressing the GIP R) (human GIP receptor [3]) [nM] | EC50, hGIP-R level of cAMP (HEK293 cells expressing human GIP R) (human GIP receptor [4]) [nM]
1 | human GIP (from UniProt P09681 52-93) (ligand) | > 100 | 0.003 | – | – | –
2 | Exendin-4 (from UniProt P26349 48-86) (peptide) | – | – | 0.004 | – | –
3 | H-Y[Aib]EGTFISDYSIELDKK([Peg3-Peg3-γGlu-C20 diacid])AQRAFIEWLLAQGPSSGAPPPS-NH2 [Compound 18] | > 3 | – | – | 0.007 | 0.006
4 | H-Y[Aib]EGTFISDYSIELDKIAAQDFVNWLLAGPSSGAPPPSK([Peg3-Peg3-γGlu-C20 diacid])-NH2 [Compound 16] | > 10 | – | – | 0.012 | 0.016
5 | H-Y[Aib]EGTFISDYSIELDKK([Peg3-Peg3-γGlu-C20 diacid])HQQDFVNYLLAQGPSSGAPPPS-NH2 [Compound 8] | > 10 | – | – | 0.019 | 0.009
6 | H-Y[Aib]EGTFISDYSIELDKK([Peg3-Peg3-γGlu-C20 diacid])AQRAFVEWLLAQGPSSGAPPPS-NH2 [Compound 17] | > 3 | – | – | 0.016 | 0.007
